Assay results as given in patent US20260242478A1 (published 2026).

Columns and labels:
[1] = target: T1, Anti-PSMA Fab (SEQ ID NOs: 19, 20); experiment: phage ELISA; biotinylated PSMA Fab on neutravidin plate, bound phage detected with anti-M13 HRP
T1 construct: Biotinylated Fab captured on neutravidin coated plates in the phage ELISA; also called 006 PSMA Fab
Description: (§1) Clonal phage were harvested as crude supernatants and screened via standard ELISAs. […] Prior to the addition of clonal phage. wells were incubated with blocking buffer and PSMA antigen or blocking buffer alone. Without washing or aspirating, clonal phage supernatants were then added to the wells and incubated for a short time. Wells were then washed followed by detection of bound phage using a horse radish conjugated anti-M13 antibody.

[2] = target: T1, Anti-PSMA Fab (SEQ ID NOs: 19, 20); experiment: phage ELISA; PSMA Fab on plate pre-incubated with PSMA antigen as competitor, anti-M13 HRP
Description: as §1

[3] = target: T2, Anti-PSMA Fab (SEQ ID NOs: 19, 20); experiment: phage ELISA; biotinylated PSMA Fab on neutravidin plate pre-incubated with PSMA antigen as competitor, anti-M13-HRP detection
T2 construct: also called 006 PSMA Fab
Description: as §1

[4] = target: T2, Anti-PSMA Fab (SEQ ID NOs: 19, 20); experiment: phage ELISA; biotinylated PSMA Fab on neutravidin plate, clonal phage supernatant, anti-M13-HRP detection;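 further: wells were preincubated with blocking buffer containing PSMA antigen or with blocking buffer only, then phage supernatant was added without washing for a brief incubation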
Description: as §1

| Binder | Phage binding ELISA, Anti-PSMA Fab signal [1] | Phage binding ELISA, Anti-PSMA Fab signal in the presence of PSMA [2] | Phage binding ELISA, Anti-PSMA Fab signal in the presence of PSMA [3] | Phage binding ELISA, Anti-PSMA Fab (SEQ ID NOs: 19, 20) signal [4] |
| --- | --- | --- | --- | --- |
| AEKWCIPPWMCEWV (Clonal phage of the peptide-180 library) [Phage-2121] | 1.71 | 0.105 | – | – |
| MVNWCTPPWMCWGF [Phage-2145] | – | – | 0.194 | 1.69 |
| TERWCVPAWMCTLV [Phage-2135] | – | – | 0.0741 | 1.7 |
| SAPWCIPEWMCFSL [Phage-2146] | – | – | 0.101 | 1.69 |
| AEKWCIPNWMCEAG [Phage-2144] | – | – | 0.0588 | 1.69 |
| EFKWCTPPWMCQWD (Clonal phage of the peptide-180 library) [Phage-2125] | 1.71 | 0.101 | – | – |
| LMKWCIPDWMCSHV (Clonal phage of the peptide-180 library) [Phage-2131] | 1.71 | 0.0763 | – | – |
| VWHWCTPPWMCNAE [Phage-2143] | – | – | 0.141 | 1.69 |
| PLPWCIPVWMCSMI (Clonal phage of the peptide-180 library) [Phage-2129] | 1.71 | 0.161 | – | – |
| EIHLCKPPWMCDWL (Clonal phage of the peptide-180 library) [Phage-2120] | 1.72 | 0.109 | – | – |
| VTAWCIPEWMCVGV (Clonal phage of the peptide-180 library) [Phage-2122] | 1.71 | 0.0929 | – | – |
| IPKWCTPVWMCEGM [Phage-2142] | – | – | 0.0647 | 1.69 |
| VLKWCIPTWMCETQ [Phage-2137] | – | – | 0.0908 | 1.7 |
| VQKWCIPEWMCAVA [Phage-2138] | – | – | 0.0584 | 1.7 |
| FEMLCTPPWMCVGL [Phage-2133] | – | – | 0.0639 | 1.7 |
| EHKWCIPSWMCADM [Phage-2140] | – | – | 0.108 | 1.69 |
| DGLLCRPLWMCQFL (Clonal phage of the peptide-180 library) [Phage-2128] | 1.71 | 0.0771 | – | – |
| VYKWCTPPWMCTQM [Phage-2136] | – | – | 0.0779 | 1.7 |
| DANWCKPTWMCAGF [Phage-2132] | – | – | 0.109 | 1.7 |
| LVKWCTPPWMCESQ (Clonal phage of the peptide-180 library) [Phage-2130] | 1.71 | 0.0701 | – | – |
| EIKWCVPQWMCENQ (Clonal phage of the peptide-180 library) [Phage-2117] | 1.72 | 0.0643 | – | – |
| EMIWCRPAWMCEGI (Clonal phage of the peptide-180 library) [Phage-2118] | 1.72 | 0.0702 | – | – |
| YAKWCIPEWMCAVS (Clonal phage of the peptide-180 library) [Phage-2119] | 1.72 | 0.12 | – | – |
| LEKWCTPSWMCIGI [Phage-2139] | – | – | 0.0773 | 1.7 |
| EMKLCRPAWMCEYM [Phage-2141] | – | – | 0.0727 | 1.69 |
| EIKWCRPGWMCKVR (Clonal phage of the peptide-180 library) [Phage-2123] | 1.71 | 0.0583 | – | – |
| WDKWCIPEWMCVTQ (Clonal phage of the peptide-180 library) [Phage-2127] | 1.71 | 0.1 | – | – |
| ILKACIPDWMCEGS (Clonal phage of the peptide-180 library) [Phage-2124] | 1.71 | 0.0604 | – | – |
| EGKWCIPEWMCSAS [Phage-2134] | – | – | 0.0777 | 1.7 |
| SDKWCIPPWMCEVA (Clonal phage of the peptide-180 library) [Phage-2126] | 1.71 | 0.0724 | – | – |
